Data as given in patent US8367390B2, “Galactanase variants” (Novozymes A/S, priority 2002, dated 2013).

Assay: Activity with ONPG, release of o-nitrophenol (ONP) at 405 nm
Assay type: biochemical
Protocol: The activity of HIGAL and MTGAL with ONPG was tested by mixing 200 microliters (normally 5.5 mg/ml) ONPG in 50 mM sodium acetate, 1 mM CaCl2, 0.01% Triton X-100, pH 6.5 with 25 microliters galactanase (normally 1 mg/ml) in the well of a microtiter plate. Release of o-nitrophenol (ONP) was measured at room temperature at 405 nm every 10 seconds normally for 30 min on a SpectraMaxPlus (Molecular Devices). Effects on the observed release of ONP was studied with varied enzyme concentration, ONPG concentration and with addition of galactose (Gal), beta-1,4-galactobiose (Gal2) (Megazyme), beta-1,4-galactotriose (Gal3), beta-1,4-galactotetraose (Gal4), glucose (Glu), arabinose (Ara), galacturonic acid (GalA), maltose (Mal) or maltotriose (Mal3).
In Tables 8-11 below, incubation times required to increase the observed absorbance at 405 nm by given amounts are listed. Cells marked ‘n.r.’ indicate that the increase in absorbance was not reached in the experiment. In general, the initial increase in absorbance at 405 nm was very slow, but after a lag phase the rate of ONP release often increased drastically—often approximately exponentially. The most likely explanation for the observed kinetics is that ONPG reacts with the enzyme to give an enzyme-galactosyl intermediate which hydrolyses very slowly. Instead, the Gal of the intermediate is released by transglycosylation, initially with ONPG or added sugar as acceptor. In cases where the rate of ONP release increases, these transglycosylation products are even better acceptors than the initial ones. […] More likely, Gal inhibits the subsequent transglycosylation, which requires binding of ONPG to the +1 and +2 subsites, e.g., by binding to the +2 subsite. With 50 mg/ml Gal added (results not shown) release of ONP was even slower with only insignificant increase of absorbance at 405 nm in 30 min.

[1] = Table 8, enzyme 28 μg/ml, ONPG 5 mg/ml, no sugar
[2] = Table 8, enzyme 55 μg/ml, ONPG 5 mg/ml, Gal 5 mg/ml
[3] = Table 8, enzyme 55 μg/ml, ONPG 5 mg/ml, no sugar
[4] = Table 8, enzyme 110 μg/ml, ONPG 5 mg/ml, Gal 5 mg/ml
[5] = Table 8, enzyme 110 μg/ml, ONPG 5 mg/ml, no sugar
[6] = Table 9, enzyme 110 μg/ml, ONPG 1.25 mg/ml
[7] = Table 9, enzyme 110 μg/ml, ONPG 2.5 mg/ml
[8] = Table 9, enzyme 110 μg/ml, ONPG 5 mg/ml
[9] = Table 9, enzyme 110 μg/ml, ONPG 10 mg/ml
[10] = Table 10, enzyme 110 μg/ml, ONPG 5 mg/ml, Gal2 0.05 mg/ml
[11] = Table 10, enzyme 110 μg/ml, ONPG 5 mg/ml, Gal2 0.5 mg/ml
[12] = Table 10, enzyme 110 μg/ml, ONPG 5 mg/ml, Gal3 0.05 mg/ml

B1: HIGAL: GH Family 53 galactanase from Humicola insolens, SEQ ID NO: 2 (wild type parent) (protein, listed as Humicola insolens)
chain: ALQYKGVDWSSVMVEERAGVRYKNVNGQEKPLEYILAENGVNMVRQRVWVNPWDGNYNLDYNIQLARRAKAAGLGLYINFHYSDTWADPAHQTTPAGWPSDINNLAWKLYNYTLDSMNRFADAGIQVDIVSIGNEITQGLLWPLGKTNNWYNIARLLHSAAWGVKDSRLNPKPKIMVHLDNGWNWDTQNWWYTNVLSQGPFEMSDFDMMGVSFYPFYSASATLDSLRRSLNNMVSRWGKEVAVVETNWPTSCPYPRYQFPADVRNVPFSAAGQTQYIQSVANVVSSVSKGVGLFYWEPAWIHNANLGSSCADNTMFTPSGQALSSLSVFHRI
modifications: mat_peptide (1)..()
Ara 5 mg/ml
  Effect of Ara on ONP release: about three times slower ONP release
Gal 5 mg/ml
  Slowing of ONP release by addition of Gal: a factor of three
GalA 5 mg/ml
  Effect of GalA on ONP release: weak inhibitory effect
GalA 50 mg/ml
  Effect of GalA on ONP release: slows ONP release by about a factor two
Glu 5 mg/ml
  Effect of Glu on ONP release: slight inhibitory effect
Glu 50 mg/ml, results not shown
  ONP release in 30 min: < 0.02
Mal or Mal3 5 mg/ml
  Effect of Mal or Mal3 on ONP release: no significant effects on ONP release
Table 8
  ONP release compared at identical enzyme dosage: faster than MTGAL
[1]
  Time (min) to increase A405 by: 0.025: 41.4 min
  Time (min) to increase A405 by: 0.05: 46.5 min
  Time (min) to increase A405 by: 0.1: 51.0 min
  Time (min) to increase A405 by: 0.2: 56.5 min
  Time (min) to increase A405 by: 0.4: n.r.
  Time (min) to increase A405 by: 0.8: n.r.
  Time (min) to increase A405 by: 1.6: n.r.
  Time (min) to increase A405 by: 3.2: n.r.
[2]
  Time (min) to increase A405 by: 0.025: 57.0 min
  Time (min) to increase A405 by: 0.05: n.r.
  Time (min) to increase A405 by: 0.1: n.r.
  Time (min) to increase A405 by: 0.2: n.r.
  Time (min) to increase A405 by: 0.4: n.r.
  Time (min) to increase A405 by: 0.8: n.r.
  Time (min) to increase A405 by: 1.6: n.r.
  Time (min) to increase A405 by: 3.2: n.r.
[3]
  Time (min) to increase A405 by: 0.025: 20.4 min
  Time (min) to increase A405 by: 0.05: 22.9 min
  Time (min) to increase A405 by: 0.1: 25.4 min
  Time (min) to increase A405 by: 0.2: 28.0 min
  Time (min) to increase A405 by: 0.4: 30.9 min
  Time (min) to increase A405 by: 0.8: 32.0 min
  Time (min) to increase A405 by: 1.6: 35.0 min
  Time (min) to increase A405 by: 3.2: 37.9 min
[4]
  Time (min) to increase A405 by: 0.025: 32.0 min
  Time (min) to increase A405 by: 0.05: 35.7 min
  Time (min) to increase A405 by: 0.1: 41.5 min
  Time (min) to increase A405 by: 0.2: 46.7 min
  Time (min) to increase A405 by: 0.4: 52.7 min
  Time (min) to increase A405 by: 0.8: 59.0 min
  Time (min) to increase A405 by: 1.6: n.r.
  Time (min) to increase A405 by: 3.2: n.r.
[5]
  Time (min) to increase A405 by: 0.025: 9.0 min
  Time (min) to increase A405 by: 0.05: 10.3 min
  Time (min) to increase A405 by: 0.1: 11.5 min
  Time (min) to increase A405 by: 0.2: 12.7 min
  Time (min) to increase A405 by: 0.4: 13.8 min
  Time (min) to increase A405 by: 0.8: 15.0 min
  Time (min) to increase A405 by: 1.6: 15.0 min
  Time (min) to increase A405 by: 3.2: 17.7 min
[6]
  Time (min) to increase A405 by: 0.025: 28.7 min
  Time (min) to increase A405 by: 0.05: n.r.
  Time (min) to increase A405 by: 0.1: n.r.
  Time (min) to increase A405 by: 0.2: n.r.
  Time (min) to increase A405 by: 0.4: n.r.
  Time (min) to increase A405 by: 0.8: n.r.
  Time (min) to increase A405 by: 1.6: n.r.
  Time (min) to increase A405 by: 3.2: n.r.
[7]
  Time (min) to increase A405 by: 0.025: 9.7 min
  Time (min) to increase A405 by: 0.05: 11.3 min
  Time (min) to increase A405 by: 0.1: 12.7 min
  Time (min) to increase A405 by: 0.2: 14.0 min
  Time (min) to increase A405 by: 0.4: 15.5 min
  Time (min) to increase A405 by: 0.8: 17.3 min
  Time (min) to increase A405 by: 1.6: 19.5 min
  Time (min) to increase A405 by: 3.2: 22.8 min
[8]
  Time (min) to increase A405 by: 0.025: 6.0 min
  Time (min) to increase A405 by: 0.05: 8.0 min
  Time (min) to increase A405 by: 0.1: 9.2 min
  Time (min) to increase A405 by: 0.2: 10.2 min
  Time (min) to increase A405 by: 0.4: 11.3 min
  Time (min) to increase A405 by: 0.8: 12.5 min
  Time (min) to increase A405 by: 1.6: 13.8 min
  Time (min) to increase A405 by: 3.2: 15.3 min
[9]
  Time (min) to increase A405 by: 0.025: 6.3 min
  Time (min) to increase A405 by: 0.05: 7.7 min
  Time (min) to increase A405 by: 0.1: 8.8 min
  Time (min) to increase A405 by: 0.2: 10.0 min
  Time (min) to increase A405 by: 0.4: 11.2 min
  Time (min) to increase A405 by: 0.8: 12.3 min
  Time (min) to increase A405 by: 1.6: 13.5 min
  Time (min) to increase A405 by: 3.2: 14.7 min
[10]
  Initial rate (mOD/min): 2 mOD/min
  Time (min) to increase A405 by: 0.025: 5.5 min
  Time (min) to increase A405 by: 0.05: 6.8 min
  Time (min) to increase A405 by: 0.1: 8.2 min
  Time (min) to increase A405 by: 0.2: 9.5 min
  Time (min) to increase A405 by: 0.4: 10.7 min
  Time (min) to increase A405 by: 0.8: 11.8 min
  Time (min) to increase A405 by: 1.6: 13.3 min
  Time (min) to increase A405 by: 3.2: 15.2 min
[11]
  Initial rate (mOD/min): 6 mOD/min
  Time (min) to increase A405 by: 0.025: 2.7 min
  Time (min) to increase A405 by: 0.05: 3.5 min
  Time (min) to increase A405 by: 0.1: 4.8 min
  Time (min) to increase A405 by: 0.2: 6.0 min
  Time (min) to increase A405 by: 0.4: 7.2 min
  Time (min) to increase A405 by: 0.8: 8.3 min
  Time (min) to increase A405 by: 1.6: 9.7 min
  Time (min) to increase A405 by: 3.2: 11.0 min
[12]
  Initial rate (mOD/min): 40 mOD/min
  Time (min) to increase A405 by: 0.025: 0.5 min
  Time (min) to increase A405 by: 0.05: 1.0 min
  Time (min) to increase A405 by: 0.1: 1.7 min
  Time (min) to increase A405 by: 0.2: 2.3 min
  Time (min) to increase A405 by: 0.4: 3.3 min
  Time (min) to increase A405 by: 0.8: 4.8 min
  Time (min) to increase A405 by: 1.6: 6.3 min
  Time (min) to increase A405 by: 3.2: 7.7 min
